Results reported in patent US20240400703A1 (Genmab, published 2024).
Several values for one entry are separate records, joined by “and”; a condition that tells them apart may be missing. Identical values can stand only once.

Legend:
[1] = biological target: T1, human OX40 expressed on cells (human, UniProt P43489 29-277); assay: flow cytometry, activated human CD4+ T cells, donor 3
T1 construct: also called CD134; TNFRSF4
T1 sequence: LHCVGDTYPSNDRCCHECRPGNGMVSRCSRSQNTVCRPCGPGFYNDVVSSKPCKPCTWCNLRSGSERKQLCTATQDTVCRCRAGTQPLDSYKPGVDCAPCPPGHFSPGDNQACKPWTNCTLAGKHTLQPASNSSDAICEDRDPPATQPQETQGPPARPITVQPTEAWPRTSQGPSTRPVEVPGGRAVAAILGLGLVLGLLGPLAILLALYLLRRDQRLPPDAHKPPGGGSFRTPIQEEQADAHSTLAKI
Experimental: (§1) Healthy human donor PBMCs were purified essentially as described in Example 7. The cell concentration was adjusted to 2×10⁶ cells per mL (final concentration) in assay medium and plated in 6-well plates (Greiner, cat. no. 657160). PBMCs were stimulated with 0.3 μg/mL anti-CD3 ([…] Technologies, cat. no. 60011) and 0.5 μg/mL anti-CD28 antibodies (BioLegend, cat. no. 302934) and cultured for two days at 37° C., 5% CO₂. Next, the PBMCs were harvested, counted and brought to a concentration of 2×10⁶ cells per mL in FACS buffer 1 (DPBS with 2% heat-inactivated FBS and 2 mM ethylenediaminetetraacetic acid [EDTA]). […] After 60 min at RT, the cells were prepared for flow cytometric analyses. To this end, the cells were washed twice with 150 μL FACS buffer 1 and 30 μL/well cell-surface antibody mix (Table 9) in FACS buffer 1 containing antibody against human Fcγ antibody (Table 9) and fixable viability dye eFluor780 (1:1,500) was added. The staining procedures were carried out at 4° C. for 15-20 min protected from light. Stained cells were washed twice with 120-150 μL FACS buffer 1 (5 min, 460×g, RT) and resuspended in 60-100 μL FACS buffer 1 for direct flow cytometric analyses. Flow cytometric data were acquired on a FACSymphony A3 and analyzed with FlowJo software.

[2] = biological target: T1, human OX40 expressed on cells; assay: flow cytometry, activated human CD8+ T cells, mean of 3 donors; CD8+ T cells
Experimental: as §1

[3] = biological target: T1, human OX40 expressed on cells; assay: flow cytometry, activated human CD8+ T cells, donor 2
Experimental: as §1

[4] = biological target: T1, human OX40 expressed on cells; assay: flow cytometry, loss of sOX40L (2 µg/mL) binding to activated human CD8+ T cells; competitor sOX40L
Experimental: (§2) Stimulated PBMCs were pelleted, resuspended in FACS buffer 2 (DPBS with 2% heat-inactivated FBS [Sigma-Aldrich, cat. no. F7524] and 2 mM EDTA [Sigma-Aldrich, cat. no. 03690]), and seeded (100,000 cells/well) in round-bottom 96-well plates (VWR International GmbH, cat. no. 734-197). […] Next, cells were washed twice in FACS buffer, and incubated with 30 μL of the antibody panel described in Table 11 diluted in FACS buffer 2 containing 1:1,500 Fixable Viability Stain eFluor 780 at 4° C. for 20 min, protected from light. The cells were subsequently washed twice with 120-150 μL FACS buffer 2 and measured on a BD FACSCelesta flow cytometer using a BD High Throughput sampler and subsequent analysis was done using FlowJo software.

[5] = biological target: T2, His-tagged human recombinant FcγRIIIa 176-Val (Sino Biological, cat. no. 10389-H27H1-B) (human, UniProt P08637 17-208); assay: SPR, His-tagged FcγR captured on anti-His chip, antibody injected
T2 construct: also called FcγRIIIa[V]
Experimental: (§3) Biacore Series S Sensor Chips CM5 (Cytiva, cat. no. 29104988) were covalently coated with anti-His antibody using amine-coupling and His capture kits (Cytiva, cat. no. BR100050 and cat. no. 29234602) according to the manufacturer's instructions. […] After three start-up cycles of HBS-EP+ buffer, antibody samples were injected for 12 cycles per sample to generate binding curves using antibody concentration ranges of 0 to 3,000 nM for FcγRIa and 0 to 10,000 nM for the other FcγRs.
(§4) Dissociation from the anti-His-coated surface was performed by regeneration of the surface using 10 mM Glycine-HCl pH 1.5 (Cytiva, cat. no. BR100354).

[6] = biological target: His-tagged human recombinant FcγRIa (Sino Biological, cat. no. 10256-H08S-B) (human, UniProt P12314 16-288); assay: as above
Experimental: as §3, §4

[7] = biological target: T3, His-tagged human recombinant FcγRIIb (Sino Biological, cat. no. 10259-H27H-B) (human, UniProt P31994 43-217); assay: as above
T3 construct: also called FcγRII2b [sic]
T3 sequence (looked up): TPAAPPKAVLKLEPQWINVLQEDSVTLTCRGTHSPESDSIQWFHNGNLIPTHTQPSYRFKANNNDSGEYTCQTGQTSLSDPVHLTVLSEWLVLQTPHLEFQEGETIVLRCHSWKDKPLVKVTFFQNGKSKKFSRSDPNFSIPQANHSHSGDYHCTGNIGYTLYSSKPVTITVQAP
Experimental: as §3, §4

[8] = biological target: T4, His-tagged human recombinant FcγRIIa 167-His (Sino Biological, cat. no. 10374-H08H1) (human, UniProt P12318 34-218); assay: as above
T4 construct: also called FcγRIIa[H]
T4 sequence (looked up): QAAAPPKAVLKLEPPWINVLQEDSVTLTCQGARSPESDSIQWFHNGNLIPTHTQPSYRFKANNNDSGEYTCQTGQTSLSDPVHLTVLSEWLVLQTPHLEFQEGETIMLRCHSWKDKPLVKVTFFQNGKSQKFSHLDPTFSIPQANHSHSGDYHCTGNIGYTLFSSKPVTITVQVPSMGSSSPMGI
Experimental: as §3, §4

[9] = biological target: T5, His-tagged human recombinant FcγRIIIa 176-Phe (Sino Biological, cat. no. 10389-H27H) (human, UniProt P08637 17-208); assay: as above
T5 construct: also called FcγRIIIa[F]
Experimental: as §3, §4

[10] = biological target: T1, human OX40 expressed on cells; assay: flow cytometry, activated human CD8+ T cells, with 2 µg/mL sOX40L, n=3
Experimental: as §2

[11] = biological target: T1, human OX40 expressed on cells; assay: flow cytometry, activated human CD4+ T cells, mean of 3 donors
Experimental: as §1

T2 sequence (P08637 17-208 F176V limits assumed): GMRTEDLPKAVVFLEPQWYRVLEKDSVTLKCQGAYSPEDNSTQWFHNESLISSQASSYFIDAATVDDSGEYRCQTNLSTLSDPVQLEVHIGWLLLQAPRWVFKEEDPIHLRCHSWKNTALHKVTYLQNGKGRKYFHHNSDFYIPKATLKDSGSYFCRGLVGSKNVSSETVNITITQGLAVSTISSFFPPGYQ
T5 sequence (P08637 17-208 limits assumed): as the sequence (P08637 17-208 F176V limits assumed) above, with V160F counted along it
Chain of His-tagged human recombinant FcγRIa (Sino Biological, cat. no. 10256-H08S-B) (P12314 16-288 limits assumed, stated change not applied): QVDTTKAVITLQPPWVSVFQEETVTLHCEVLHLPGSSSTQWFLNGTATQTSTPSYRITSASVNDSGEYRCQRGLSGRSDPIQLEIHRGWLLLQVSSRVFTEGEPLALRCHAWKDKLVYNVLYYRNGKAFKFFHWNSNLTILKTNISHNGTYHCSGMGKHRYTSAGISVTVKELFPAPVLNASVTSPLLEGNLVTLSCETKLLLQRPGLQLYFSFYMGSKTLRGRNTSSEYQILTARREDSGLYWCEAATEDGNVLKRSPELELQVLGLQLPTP

EC50 [1]: 0.0187 µg/mL
EC50 [2]: 0.159 nM
EC50 [3]: 0.0163 µg/mL
IC50 [4]: 0.084 µg/mL
binding result [5]: no binding (tested: 10,000 nM)
binding result [6]: binds
binding result [7]: no binding (tested: about 5,000 nM)
binding result [8]: no binding (tested: 10,000 nM)
binding result [9]: no binding (tested: about 4,000 nM)
EC50 [10]: 0.038 µg/mL and 0.254 nM
EC50 [11]: 0.0209 µg/mL
B1: IgG1-CD134-003-HC6LC2-P329R-E345R (antibody)
heavy: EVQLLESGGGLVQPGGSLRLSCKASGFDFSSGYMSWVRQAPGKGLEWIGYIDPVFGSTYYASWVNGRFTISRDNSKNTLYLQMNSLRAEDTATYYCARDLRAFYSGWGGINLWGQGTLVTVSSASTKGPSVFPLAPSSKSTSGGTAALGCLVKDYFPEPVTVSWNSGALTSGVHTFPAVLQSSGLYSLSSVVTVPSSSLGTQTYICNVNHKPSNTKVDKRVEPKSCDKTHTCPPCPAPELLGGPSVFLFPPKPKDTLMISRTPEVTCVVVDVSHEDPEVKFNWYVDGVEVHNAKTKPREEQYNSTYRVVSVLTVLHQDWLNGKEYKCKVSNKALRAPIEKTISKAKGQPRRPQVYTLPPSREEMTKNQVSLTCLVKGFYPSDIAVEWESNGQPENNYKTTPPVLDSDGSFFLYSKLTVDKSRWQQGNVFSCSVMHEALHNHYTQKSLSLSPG
light: AAVLTQSPSSLSASVGDRVTITCQSSQIVVNNNFLSWYQQKPGKAPKLLIYDASNLASGVPDRFSGSGSGTDFTFTISSLQPEDIATYYCLGGYDDDAENAFGGGTKVEIKRTVAAPSVFIFPPSDEQLKSGTASVVCLLNNFYPREAKVQWKVDNALQSGNSQESVTEQDSKDSTYSLSSTLTLSKADYEKHKVYACEVTHQGLSSPVTKSFNRGEC
notes: humanized; human IgG1 with P329R and E345R (Eu numbering), kappa; also called IgG1-CD134-003-HC6LC2-RR
